Laboratory results published in patent US20250034277A1 (SUZHOU ALPHAMAB, published 2025).
One block for each binder: values may come before it.

Columns and labels:
[1] = target: T1, FXI in standard human plasma (human, UniProt P03951 19-625); test: cell-based or functional assay
[2] = target: T1, FXI in standard human plasma; test: cell-based or functional assay; remark: listed apart in the source
FXI in monkey plasma = FXI in monkey plasma (monkey); test: cell-based or functional assay
FXI in rabbit plasma [3] = target: FXI in rabbit plasma (rabbit); test: cell-based or functional assay
hFXI-CHis protein = target: T2, hFXI-CHis protein (human, UniProt P03951 19-625); test: BLI, antibody on Protein A biosensor, hFXI-Chis 50-3.125 nM, 1:1 model
T2 construct: FXI is said in the background to be a dimer; nothing is said of the construct; also called human FXI; human FXI factor protein; not shown: C-terminal His tag (CHis)

FXI in cynomolgus plasma = FXI in cynomolgus plasma (cynomolgus); test: cell-based or functional assay
FXI in rabbit plasma [4] = target: FXI in rabbit plasma (rabbit); test: cell-based or functional assay; remark: listed apart in the source
FXI in rat plasma = FXI in rat plasma (rat); test: cell-based or functional assay

APTT ratio in standard human plasma at 0.1 µg/mL [1]: 1 ratio
APTT ratio in standard human plasma at 0.5 µg/mL [1]: 1.14 ratio
APTT ratio in standard human plasma at 1 µg/mL [1]: 1.27 ratio
APTT ratio in standard human plasma at 2 µg/mL [1]: 1.58 ratio
APTT ratio in standard human plasma at 5 µg/mL [1]: 1.98 ratio
APTT ratio in standard human plasma at 10 µg/mL [1]: 2.22 ratio
whole blood APTT in standard human plasma at 0.1 µg/mL [2]: 22.9
whole blood APTT in standard human plasma at 0.5 µg/mL [2]: 26.3
whole blood APTT in standard human plasma at 1 µg/mL [2]: 29.2
whole blood APTT in standard human plasma at 2 µg/mL [2]: 36.4
whole blood APTT in standard human plasma at 5 µg/mL [2]: 45.6
whole blood APTT in standard human plasma at 10 µg/mL [2]: 51.1
whole blood APTT in monkey plasma at 0.1 µg/mL (FXI in monkey plasma): 21
whole blood APTT in monkey plasma at 0.5 µg/mL (FXI in monkey plasma): 23.1
whole blood APTT in monkey plasma at 1 µg/mL (FXI in monkey plasma): 25.6
whole blood APTT in monkey plasma at 2 µg/mL (FXI in monkey plasma): 30.2
whole blood APTT in monkey plasma at 5 µg/mL (FXI in monkey plasma): 37.1
whole blood APTT in monkey plasma at 10 µg/mL (FXI in monkey plasma): 42.5
whole blood APTT in rabbit plasma at 0.1 µg/mL (FXI in rabbit plasma [3]): 15.3
whole blood APTT in rabbit plasma at 0.5 µg/mL (FXI in rabbit plasma [3]): 16
whole blood APTT in rabbit plasma at 1 µg/mL (FXI in rabbit plasma [3]): 16.4
whole blood APTT in rabbit plasma at 2 µg/mL (FXI in rabbit plasma [3]): 18.1
whole blood APTT in rabbit plasma at 5 µg/mL (FXI in rabbit plasma [3]): 24.1
whole blood APTT in rabbit plasma at 10 µg/mL (FXI in rabbit plasma [3]): 28.8
Kd (hFXI-CHis protein): 4.12 nM
B1: reference antibody BAY1213790 (antibody, human IgG1, kappa, V domains shown)
VH: EVQLLESGGGLVQPGGSLRLSCAASGFTFSQYGMDWVRQAPGKGLEWVSGIGPSGGSTVYADSVKGRFTISRDNSKNTLYLQMNSLRAEDTAVYYCTRGGPYYYYGMDVWGQGTTVTVSS
VL: DIQMTQSPSSLSASVGDRVTITCQASQDISNYLNWYQQKPGKAPKLLIYDASNLETGVPSRFSGSGSGTDFTFTISSLQPEDIATYYCQQADSFPVTFGGGTKVEIKR
notes: Anti-FXI antibody developed by Bayer

APTT ratio in standard human plasma at 0.1 µg/mL [1]: 1 ratio
APTT ratio in standard human plasma at 0.5 µg/mL [1]: 1.09 ratio
APTT ratio in standard human plasma at 1 µg/mL [1]: 1.23 ratio
APTT ratio in standard human plasma at 2 µg/mL [1]: 1.67 ratio
APTT ratio in standard human plasma at 5 µg/mL [1]: 2.05 ratio
APTT ratio in standard human plasma at 10 µg/mL [1]: 2.09 ratio
APTT ratio in cynomolgus plasma at 0.1 µg/mL (FXI in cynomolgus plasma): 1 ratio
APTT ratio in cynomolgus plasma at 0.5 µg/mL (FXI in cynomolgus plasma): 1.07 ratio
APTT ratio in cynomolgus plasma at 1 µg/mL (FXI in cynomolgus plasma): 1.18 ratio
APTT ratio in cynomolgus plasma at 2 µg/mL (FXI in cynomolgus plasma): 1.89 ratio
APTT ratio in cynomolgus plasma at 5 µg/mL (FXI in cynomolgus plasma): 2.46 ratio
APTT ratio in cynomolgus plasma at 10 µg/mL (FXI in cynomolgus plasma): 2.53 ratio
APTT ratio in rabbit plasma at 0.1 µg/mL (FXI in rabbit plasma [4]): 0.85 ratio
APTT ratio in rabbit plasma at 0.5 µg/mL (FXI in rabbit plasma [4]): 0.88 ratio
APTT ratio in rabbit plasma at 1 µg/mL (FXI in rabbit plasma [4]): 0.93 ratio
APTT ratio in rabbit plasma at 2 µg/mL (FXI in rabbit plasma [4]): 1.17 ratio
APTT ratio in rabbit plasma at 5 µg/mL (FXI in rabbit plasma [4]): 1.88 ratio
APTT ratio in rabbit plasma at 10 µg/mL (FXI in rabbit plasma [4]): 2.05 ratio
APTT ratio in rat plasma at 0.5 µg/mL (FXI in rat plasma): 1.08 ratio
APTT ratio in rat plasma at 1 µg/mL (FXI in rat plasma): 1.04 ratio
APTT ratio in rat plasma at 2 µg/mL (FXI in rat plasma): 1.13 ratio
APTT ratio in rat plasma at 5 µg/mL (FXI in rat plasma): 1.37 ratio
APTT ratio in rat plasma at 10 µg/mL (FXI in rat plasma): 1.34 ratio
APTT ratio in rat plasma at 30 µg/mL (FXI in rat plasma): 1.37 ratio
whole blood APTT in standard human plasma at 0.1 µg/mL [2]: 22.9
whole blood APTT in standard human plasma at 0.5 µg/mL [2]: 25.1
whole blood APTT in standard human plasma at 1 µg/mL [2]: 28.3
whole blood APTT in standard human plasma at 2 µg/mL [2]: 38.3
whole blood APTT in standard human plasma at 5 µg/mL [2]: 47.2
whole blood APTT in standard human plasma at 10 µg/mL [2]: 48.1
whole blood APTT in monkey plasma at 0.1 µg/mL (FXI in monkey plasma): 20.9
whole blood APTT in monkey plasma at 0.5 µg/mL (FXI in monkey plasma): 22.4
whole blood APTT in monkey plasma at 1 µg/mL (FXI in monkey plasma): 24.7
whole blood APTT in monkey plasma at 2 µg/mL (FXI in monkey plasma): 39.6
whole blood APTT in monkey plasma at 5 µg/mL (FXI in monkey plasma): 51.4
whole blood APTT in monkey plasma at 10 µg/mL (FXI in monkey plasma): 52.8
whole blood APTT in rabbit plasma at 0.1 µg/mL (FXI in rabbit plasma [3]): 15.6
whole blood APTT in rabbit plasma at 0.5 µg/mL (FXI in rabbit plasma [3]): 16.1
whole blood APTT in rabbit plasma at 1 µg/mL (FXI in rabbit plasma [3]): 17.2
whole blood APTT in rabbit plasma at 2 µg/mL (FXI in rabbit plasma [3]): 21.5
whole blood APTT in rabbit plasma at 5 µg/mL (FXI in rabbit plasma [3]): 34.5
whole blood APTT in rabbit plasma at 10 µg/mL (FXI in rabbit plasma [3]): 37.8
B2: reference antibody 14E11 (antibody, human IgG1, kappa, V domains shown)
VH: QVQLEESGPGLVAPSQSLSITCTVSGFSLTGYGIYWVRQPPGKGLEWLGMIWGDGRTDYNSALKSRLSISKDNSKSQVFLKMNSLQTDDTARYYCARDYYGSKDYWGQGTTLTVSS
VL: DIVMTQSHKFMSTSVGDRVSITCKASQDVSTAVAWYQQKPGQSPKLLIYLTSYRNTGVPDRFTGSGSGTDFTFTISSVQAEDLAVYYCQQHYKTPYSFGGGTKLERLR
